One block for each substance: values may come before it.
How the values were obtained:
[1] = target: human CD19, full length, on cells (human) (UniProt P15391); experiment: FACS on CHO-K1-human CD19-1C4 cells
[2] = target: human CD19, full length, on cells (human) (UniProt P15391); experiment: FACS on CHO-K1-human CD19-2G4 cells
[3] = target: monkey CD19, full length, on HEK293T cells (monkey); experiment: FACS on HEK293T-monkey CD19 cells
[4] = target: human CD19, full length, on cells (human) (UniProt P15391); experiment: FACS on CHO-K1-human CD19-2C8 cells
[5] = target: human CD19, full length, on cells (human) (UniProt P15391); experiment: FACS on CHO-K1-human CD19-1C9 cells
[6] = target: human CD19, full length, on cells (human) (UniProt P15391); experiment: FACS on Raji cells (endogenous CD19)
[7] = target: human CD19, full length, on cells (human) (UniProt P15391); experiment: FACS on Raji cells
[8] = target: human CD19, full length, on cells (human) (UniProt P15391); experiment: FACS on CHO-K1-human CD19 cells
[9] = target: cynomolgus monkey CD19 on peripheral blood B cells (cynomolgus monkey (Macaca fascicularis)); experiment: FACS on cynomolgus monkey PBMC, gated on CD20-positive B cells
[10] = target: murine CD19 protein (murine) (UniProt P25918); experiment: ELISA, murine CD19 coated
[11] = target: human CD19-his protein (human) (UniProt P15391); experiment: ELISA, human CD19-his coated at 4 ug/mL

murine CD19 protein (murine), sequence (P25918 19-287 limits assumed): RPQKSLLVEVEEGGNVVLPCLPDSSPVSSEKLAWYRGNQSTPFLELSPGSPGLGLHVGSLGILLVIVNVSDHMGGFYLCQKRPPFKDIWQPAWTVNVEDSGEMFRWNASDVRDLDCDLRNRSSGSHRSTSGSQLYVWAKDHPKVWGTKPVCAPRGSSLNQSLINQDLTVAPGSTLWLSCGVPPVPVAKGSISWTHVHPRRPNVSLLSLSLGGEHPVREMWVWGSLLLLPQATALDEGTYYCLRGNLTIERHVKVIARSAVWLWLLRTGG

mean fluorescence intensity of cells [1]: 50 MFI
mean fluorescence intensity of cells [2]: 50 MFI
mean fluorescence intensity of cells [3]: 62 MFI
mean fluorescence intensity of cells [4]: 50 MFI
mean fluorescence intensity of cells [5]: 50 MFI
mean fluorescence intensity of cells [6]: 78 MFI
Substance: IgG subtype control (antibody)

maximum mean fluorescence intensity [7]: 382 MFI
maximum mean fluorescence intensity [8]: 102 MFI
maximum mean fluorescence intensity [3]: 165 MFI
proportion of positive cells to B cells (%) at 1 nM [9]: 3%
proportion of positive cells to B cells (%) at 10 nM [9]: 5%
proportion of positive cells to B cells (%) at 100 nM [9]: 11%
OD450 at 0.0001 nM [10]: 0.07 OD450
OD450 at 0.001 nM [10]: 0.06 OD450
OD450 at 0.01 nM [10]: 0.06 OD450
OD450 at 0.10 nM [10]: 0.06 OD450
OD450 at 1.00 nM [10]: 0.06 OD450
OD450 at 10.00 nM [10]: 0.08 OD450
OD450 at 100.00 nM [10]: 0.11 OD450
OD450 at 0.0001 nM [11]: 0.11 OD450
OD450 at 0.001 nM [11]: 0.12 OD450
OD450 at 0.01 nM [11]: 0.11 OD450
OD450 at 0.10 nM [11]: 0.11 OD450
OD450 at 1.00 nM [11]: 0.11 OD450
OD450 at 10.00 nM [11]: 0.12 OD450
OD450 at 100.00 nM [11]: 0.15 OD450
Substance: negative control antibody mIgG1 (anti-hel-mIgG1, antibody against hen egg lysozyme)

Reference: patent publication US20230406922A1
